Laboratory results published in the nanobody polyreactivity screen of Harvey et al. (2022).

Assay: yeast display, Sf9 membrane polyspecificity reagent, FACS + sequencing; frameworks hold sequencing errors
Method in brief: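 Galactose-induced (36–48 hours) yeast carrying a synthetic nanobody display library were exposed to 10% biotinylated, detergent-solubilized Sf9 membrane reagent at 4 °C for 1 hour. FACS followed streptavidin microbead enrichment, using low and high (top ~1%) gates for expression (anti-HA) and reagent binding (streptavidin). Colony PCR, MiSeq 2 × 250 sequencing and CDR-length filtering followed. Labels for polyreactivity reflect the gate of origin.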

Sequence | polyreactivity (PSR sort gate)
QVQLVESGGGLVQAGGSLRLSCAASGFIFYRNTMGWYRQAPGKEREFVAAIRWRGGSTYYADSVKGRFTISRDNAKNTVYLQMNSLKPEDTAVYYCAADTRPGYSGFEYWGQGTQVTVSS | high polyreactivity
QVQLVESGGGLVQAGGSLRLSCAASGSTFRRNVMGWSRQAPGKERELVAVISKSGGSTYYADSVKGRFTISRDNAENTVYLQMNSLKPEDTAVYYCAARYLKGYGYWGQGTQVTVSS | high polyreactivity
QVQLVESGGGLVQAGGSLRLSCAPSGRTLYGYAMGWYRQAPGKVSALVASFRSGGSTNYADSVKGRFTISLDNAKNTVYLQMNSLKPEDTAVYYCAADPYYSYGYYHAHGRDDGYWGQCTQVTVSS | low polyreactivity
QVQLVETGGGLVQAGGSLRLSCAASGIIFGGYDRGWYRQAPGKERELVAAISWSGGSTYYAASVKGRFTISRDNAKNTVYLEMNSLKPEDTAVYYCAAAYYAPTRDYYYWGQGTQVTVSS | low polyreactivity
QVQLVESGGGLVQAGGSLRLSCAASGFTFITNAMGWYRQAPGKERELVASISIGGSTNYADSVKGRFTISRDNAKNTVYLQMNSLKPEDTAVYYCAARVYRRLFLPGRYGRPLGYWGQGTQVTVSS | high polyreactivity
QVQRVDSGGGLVQAGGSLRLSCAASGSTFPGYAMGWYRQAPGKERELVAAISKRGGSTRYADSVKGRFTISRDNAKNTVYLQMNSLKPEDTAVYYCAASYSYSGSGGGYWGQVTQVTVSS | high polyreactivity
QVQLVESGGGLVQAGGSLRLSCAASGITFKPNAMGWYRQAPGKERELVAALDTGGSTNYADSVKGRFTISRDNEKNTVYLQMNSLKPEDTEVYYCAAPYQDRDLHVSYSTYEGGYWGQGTQVTVSS | low polyreactivity
QVQLVESGGGLVQAGGSLRLSCAASGRILGQYVMGWYRQAPGKERELVASIRSGGVSTYYADSVKGRFTISRDNAKNTVYLQMNSLKPEDTAVYYCATGSPGPRRYKFDYWGQGTQVTVSS | low polyreactivity
QVQLVESGGGLVQAGGSLRLSCAASGSIFGDNAMGWYRQAPGKERELVAAISSSGGSTYADSVKGRFTISRDNAKNTVYLQMNSLKPEDTAVYYCATQIAWGTYVINPQMDYWGQGTQVTVSS | low polyreactivity
QVQLVESGGGLVQAGGSLRLSCAASGLTLRRYAMGWYRQAPGKERELVASINSGTSTKYADSVKGRFTISRDNAKNTVYLQMNSLKPEDTAVYYCAAAGYFPTAGSRRAYYYWGQGTQVTVSS | high polyreactivity
QVQLVESGGGLVQAGGSLRLSCAASGSTFKRNAMGWYRQAPGKERELVAAISWRGTSTYYADSVKGRFTISRDNAKNTVYLQMNSLKPEDTAVYYCAADRGSSVRYGYWGQGTQVTVSS | high polyreactivity
QVQLVESGGGLVQAGGSLRLSCAASGSIFYDNAMGWYRQAPGKERELVAAISFRGSSTYYADSVKGRFTISRDNAKNTVYLQMNSLKPEDTAVYYCNTDIYVQYGWGQGTQVTVSS | low polyreactivity
QVQLVESGGGLVQAGGSLRLSCAASGFIFFRYAMGWYRQAPGKERELVATITSSGRTNYADSVKGRFTISRDNAKNTVYLQMNSLKPEDTAVYYCAAQRTGARRYRYDSWGQGTQVTVSS | high polyreactivity
QVQLVESGGGLVQAGGSLRLSCAASGRTFRGYALGWYRQAPGKERELVAAISGGTTNYADSVKGRFTISRDNAKNTVYLQMNSLKPVDTAVYYCAAAQRQYWRYRLGYEYGSWGQGTQVTVSS | low polyreactivity
QVQLVESGGGLVQAGGSLRLRCAASGSNFYQNAMGGYRQAPGKETALLATIDVNTVSTSYADSVKGRFTISRDNAKNTVYLQMHSLKPEDTAVYYCAAGPDVGVLGDRDPWKNVKYDYWGQGTQVTASS | low polyreactivity
QVQLVESGGGLVQAGASLRLSCAASGRTFYRYAMGWYRQAPGKEREFVAAISNGGSNTRYADSVKGRFTISRDTAKNNVYFQMNSLKPEETAVYYCAARAYQHYNWGQGTQVTVSS | high polyreactivity
QVQLVESGGGLVQAGGSLRLSCAASGRTFRAYVMGWYRQAPGKERELVAAITGDGGSTYYADSVKGRFTISRDNAKNTVYLQMNSLKPEDTAVYYCAAGYVTVYGYYEYWGQGTQVTVSS | high polyreactivity
